Measured values: PMC11070986 (Nature, 2024)

Biological target: the molecule itself
Experiment: cryo-EM structure

B1: human VMAT1(ΔL1/2) (natural protein, UniProt P54219 1-525, looked up)
chain: MLRTILDAPQRLLKEGRASRQLVLVVVFVALLLDNMLFTVVVPIVPTFLYDMEFKEVNSSLHLGHAGSNCLQGTGFLEEEITRVGVLFASKAVMQLLVNPFVGPLTNRIGYHIPMFAGFVIMFLSTVMFAFSGTYTLLFVARTLQGIGSSFSSVAGLGMLASVYTDDHERGRAMGTALGGLALGLLVGAPFGSVMYEFVGKSAPFLILAFLALLDGALQLCILQPSKVSPESAKGTPLFMLLKDPYILVAAGSICFANMGVAILEPTLPIWMMQTMCSPKWQLGLAFLPASVSYLIGTNLFGVLANKMGRWLCSLIGMLVVGTSLLCVPLAHNIFGLIGPNAGLGLAIGMVDSSMMPIMGHLVDLRHTSVYGSVYAIADVAFCMGFAIGPSTGGAIVKAIGFPWLMVITGVINIVYAPLCYYLRSPPAKEEKLAILSQDCPMETRMYATQKPTKEFPLGEDSDEEPDHEE
stoichiometry N: 2
